Data set [1] concerns HeLa Kyoto. Put plainly: solubility in G1/S (NP-40 vs SDS abundance) (log2 ratio); higher = more soluble. The settings on record: cell cycle stage: G1/S.
The subject of data set [2] is HeLa Kyoto. Kind of data set: melting temperature (median over replicates), in situ; higher = more thermally stable.
The subject of data set [3] is HeLa Kyoto. Put plainly: solubility change mitosis vs G1/S (difference of NP-40 vs SDS log2 ratios) (log2 ratio difference); higher = more soluble in mitosis.
Data set [4] has as its system HeLa Kyoto. Kind of data set: thermal stability score vs G1/S (z-score of summed log2 fold changes over temperatures); higher = more thermally stable than in G1/S.
[5] abbreviates: cell cycle stage: early G1 (4.5 h after nocodazole release).
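For melting temperature (median over replicates), in situ in this document: HeLa Kyoto cells synchronized by double thymidine or nocodazole block, proteins quantified by TMT10plex mass spectrometry, three independent biological replicates.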
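For solubility change mitosis vs G1/S (difference of NP-40 vs SDS log2 ratios) in this document: synchronized HeLa Kyoto cells (double thymidine block for G1/S, nocodazole release for mitosis), protein amounts in NP-40 versus SDS lysates quantified by mass spectrometry, three biological replicates.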
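For solubility in G1/S (NP-40 vs SDS abundance) in this document: HeLa Kyoto cells arrested at G1/S by double thymidine block, proteins quantified by TMT10plex mass spectrometry in mild NP-40 versus SDS extracts, three biological replicates.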
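For thermal stability score vs G1/S (z-score of summed log2 fold changes over temperatures) in this document: synchronized HeLa Kyoto cells, proteins quantified by TMT10plex mass spectrometry, three biological replicates, mitosis taken 0.5 h after nocodazole release, G1/S directly after double thymidine block.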

CSNK2B, sequence (chain, as listed by the source): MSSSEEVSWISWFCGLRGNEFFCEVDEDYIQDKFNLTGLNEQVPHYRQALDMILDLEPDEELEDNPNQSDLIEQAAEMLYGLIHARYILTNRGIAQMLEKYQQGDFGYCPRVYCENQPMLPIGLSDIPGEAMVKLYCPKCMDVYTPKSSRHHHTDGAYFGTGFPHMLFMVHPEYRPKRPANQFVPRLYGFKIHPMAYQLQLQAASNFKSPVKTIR
PCYT1A, sequence (chain, as listed by the source): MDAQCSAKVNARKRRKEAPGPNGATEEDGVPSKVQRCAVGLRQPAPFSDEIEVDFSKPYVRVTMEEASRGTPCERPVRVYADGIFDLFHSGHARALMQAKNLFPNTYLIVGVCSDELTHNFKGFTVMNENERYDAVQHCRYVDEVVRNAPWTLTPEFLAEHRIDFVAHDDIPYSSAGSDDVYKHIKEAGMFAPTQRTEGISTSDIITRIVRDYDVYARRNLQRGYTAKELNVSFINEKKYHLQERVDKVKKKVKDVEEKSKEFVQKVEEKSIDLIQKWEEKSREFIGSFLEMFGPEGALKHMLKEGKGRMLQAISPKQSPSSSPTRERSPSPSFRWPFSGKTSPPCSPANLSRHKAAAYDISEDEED

With “MNAEPERKFGVVVVGVGRAGSVRMRDLRNPHPSSAFLNLIGFVSRRELGSIDGVQQISLEDALSSQEVEVAYICSESSSHEDYIRQFLNAGKHVLVEYPMTLSLAAAQELWELAEQKGKVLHEEHVELLMEEFAFLKKEVVGKDLLKGSLLFTAGPLEEERFGFPAFSGISRLTWLVSLFGELSLVSATLEERKEDQYMKMTVCLETEKKSPLSWIEEKGPGLKRNRYLSFHFKSGSLENVPNVGVNKNIFLKDQNIFVQKLLGQFSEKELAAEKKRILHCLGLAEEIQKYCCSRK [BLVRA]”, the “solubility in G1/S (log2)” value in the data set with HeLa Kyoto [1] is 0.108. For the same substance, the figures for the melting temperature in the data set with HeLa Kyoto [2] (cell cycle stage: G1/S) and in the data set on HeLa Kyoto [2] (cell cycle stage: mitosis) were 54.9 °C and 55 °C, respectively. In addition, the “solubility change mitosis (log2)” value in the data set on HeLa Kyoto [3] was -0.0957. The thermal stability score in the data set with HeLa Kyoto [4] (setting [5]) was -0.499; in the data set with HeLa Kyoto [4] (cell cycle stage: mitosis), -0.397.
In the case of “MLPLSIKDDEYKPPKFNLFGKISGWFRSILSDKTSRNLFFFLCLNLSFAFVELLYGIWSNCLGLISDSFHMFFDSTAILAGLAASVISKWRDNDAFSYGYVRAEVLAGFVNGLFLIFTAFFIFSEGVERALAPPDVHHERLLLVSILGFVVNLIGIFVFKHGGHGHSHGSGHGHSHSLFNGALDQAHGHVDHCHSHEVKHGAAHSHDHAHGHGHFHSHDGPSLKETTGPSRQILQGVFLHILADTLGSIGVIASAIMMQNFGLMIADPICSILIAILIVVSVIPLLRESVGILMQRTPPLLENSLPQCYQRVQQLQGVYSLQEQHFWTLCSDVYVGTLKLIVAPDADARWILSQTHNIFTQAGVRQLYVQIDFAAM [SLC30A7]”, in the data set on HeLa Kyoto [1], the “solubility in G1/S (log2)” value was found to be 0.101. Besides, the melting temperature in the data set on HeLa Kyoto [2] (cell cycle stage: G1/S) was found to be 57.8 °C; in the data set with HeLa Kyoto [2] (cell cycle stage: mitosis), 55.4 °C. Also, the “solubility change mitosis (log2)” value with HeLa Kyoto [3] was -0.278. Further, the thermal stability score was 0.255 in the data set with HeLa Kyoto [4] (setting [5]) and -1.45 in the data set with HeLa Kyoto [4] (cell cycle stage: mitosis).
For the substance “MAAAEPAVLALPNSGAGGAGAPSGTVPVLFCFSVFARPSSVPHGAGYELLIQKFLSLYGDQIDMHRKFVVQLFAEEWGQYVDLPKGFAVSERCKVRLVPLQIQLTTLGNLTPSSTVFFCCDMQERFRPAIKYFGDIISVGQRLLQGARILGIPVIVTEQYPKGLGSTVQEIDLTGVKLVLPKTKFSMVLPEVEAALAEIPGVRSVVLFGVETHVCIQQTALELVGRGVEVHIVADATSSRSMMDRMFALERLARTGIIVTTSEAVLLQLVADKDHPKFKEIQNLIKASAPESGLLSKV [ISOC1]”, the “solubility in G1/S (log2)” value with HeLa Kyoto [1] was found to be 0.237. Also, the results for the melting temperature in the data set with HeLa Kyoto [2] (cell cycle stage: G1/S) and in the data set with HeLa Kyoto [2] (cell cycle stage: mitosis) were 55.3 °C and 55.4 °C, respectively. For the same substance, the “solubility change mitosis (log2)” value with HeLa Kyoto [3] is -0.11. The figures for the thermal stability score in the data set on HeLa Kyoto [4] (setting [5]) and in the data set with HeLa Kyoto [4] (cell cycle stage: mitosis) were -1.52 and -0.91, respectively.
As to XRN1, in the data set on HeLa Kyoto [1], the “solubility in G1/S (log2)” value is -0.345. For the same substance, the melting temperature turned out to be 49 °C with HeLa Kyoto [2] (cell cycle stage: G1/S) and 48.5 °C in the data set with HeLa Kyoto [2] (cell cycle stage: mitosis). The “solubility change mitosis (log2)” value with HeLa Kyoto [3] is -0.0622. For the same substance, the thermal stability score in the data set on HeLa Kyoto [4] (setting [5]) is 0.741; in the data set with HeLa Kyoto [4] (cell cycle stage: mitosis), 0.939.
For “MDVLVSECSARLLQQEEEIKSLTAEIDRLKNCGCLGASPNLEQLQEENLKLKYRLNILRKSLQAERNKPTKNMINIISRLQEVFGHAIKAAYPDLENPPLLVTPSQQAKFGDYQCNSAMGISQMLKTKEQKVNPREIAENITKHLPDNECIEKVEIAGPGFINVHLRKDFVSEQLTSLLVNGVQLPALGENKKVIVDFSSPNIAKEMHVGHLRSTIIGESISRLFEFAGYDVLRLNHVGDWGTQFGMLIAHLQDKFPDYLTVSPPIGDLQVFYKESKKRFDTEEEFKKRAYQCVVLLQGKNPDITKAWKLICDVSRQELNKIYDALDVSLIERGESFYQDRMNDIVKEFEDRGFVQVDDGRKIVFVPGCSIPLTIVKSDGGYTYDTSDLAAIKQRLFEEKADMIIYVVDNGQSVHFQTIFAAAQMIGWYDPKVTRVFHAGFGVVLGEDKKKFKTRSGETVRLMDLLGEGLKRSMDKLKEKERDKVLTAEELNAAQTSVAYGCIKYADLSHNRLNDYIFSFDKMLDDRGNTAAYLLYAFTRIRSIARLANIDEEMLQKAARETKILLDHEKEWKLGRCILRFPEILQKILDDLFLHTLCDYIYELATAFTEFYDSCYCVEKDRQTGKILKVNMWRMLLCEAVAAVMAKGFDILGIKPVQRM [RARS]”, the “solubility in G1/S (log2)” value in the data set on HeLa Kyoto [1] was -0.181. For the same substance, the melting temperature in the data set with HeLa Kyoto [2] (cell cycle stage: G1/S) was 49 °C; in the data set on HeLa Kyoto [2] (cell cycle stage: mitosis), 48.9 °C. Also, in the data set with HeLa Kyoto [3], the “solubility change mitosis (log2)” value is -0.175. Further, the thermal stability score was found to be 0.328 in the data set on HeLa Kyoto [4] (setting [5]) and 1.95 with HeLa Kyoto [4] (cell cycle stage: mitosis).
In the case of PCYT1A, the “solubility in G1/S (log2)” value with HeLa Kyoto [1] worked out at 0.341. For the same substance, the melting temperature in the data set with HeLa Kyoto [2] (cell cycle stage: G1/S) is 51.4 °C; in the data set on HeLa Kyoto [2] (cell cycle stage: mitosis) it was 52.4 °C. For the same substance, in the data set on HeLa Kyoto [3], the “solubility change mitosis (log2)” value was -0.0895. Also, the thermal stability score in the data set on HeLa Kyoto [4] (setting [5]) worked out at 2.25; with HeLa Kyoto [4] (cell cycle stage: mitosis), 3.79.
Consider CSNK2B, for which the “solubility in G1/S (log2)” value in the data set with HeLa Kyoto [1] stood at 0.227. For the same substance, the results for the melting temperature with HeLa Kyoto [2] (cell cycle stage: G1/S) and in the data set with HeLa Kyoto [2] (cell cycle stage: mitosis) were 50.8 °C and 51.1 °C, respectively. Also, in the data set on HeLa Kyoto [3], the “solubility change mitosis (log2)” value came out at 0.0236. Also, the thermal stability score turned out to be 0.696 with HeLa Kyoto [4] (setting [5]) and 0.623 in the data set on HeLa Kyoto [4] (cell cycle stage: mitosis).
For “MAAESALQVVEKLQARLAANPDPKKLLKYLKKLSTLPITVDILAETGVGKTVNSLRKHEHVGSFARDLVAQWKKLVPVERNAEPDEQDFEKSNSRKRPRDALQKEEEMEGDYQETWKATGSRSYSPDHRQKKHRKLSELERPHKVSHGHERRDERKRCHRMSPTYSSDPESSDYGHVQSPPSCTSPHQMYVDHYRSLEEDQEPIVSHQKPGKGHSNAFQDRLGASQERHLGEPHGKGVVSQNKEHKSSHKDKRPVDAKSDEKASVVSREKSHKALSKEENRRPPSGDNAREKPPSSGVKKEKDREGSSLKKKCLPPSEAASDNHLKKPKHRDPEKAKLDKSKQGLDSFDTGKGAGDLLPKVKEKGSNNLKTPEGKVKTNLDRKSLGSLPKVEETDMEDEFEQPTMSFESYLSYDQPRKKKKKIVKTSATALGDKGLKKNDSKSTGKNLDSVQKLPKVNKTKSEKPAGADLAKLRKVPDVLPVLPDLPLPAIQANYRPLPSLELISSFQPKRKAFSSPQEEEEAGFTGRRMNSKMQVYSGSKCAYLPKMMTLHQQCIRVLKNNIDSIFEVGGVPYSVLEPVLERCTPDQLYRIEEYNHVLIEETDQLWKVHCHRDFKEERPEEYESWREMYLRLQDAREQRLRVLTKNIQFAHANKPKGRQAKMAFVNSVAKPPRDVRRRQEKFGTGGAAVPEKIKIKPAPYPMGSSHASASSISFNPSPEEPAYDGPSTSSAHLAPVVSSTVSYDPRKPTVKKIAPMMAKTIKAFKNRFSRR [TCEB3]”, the “solubility in G1/S (log2)” value in the data set with HeLa Kyoto [1] is -0.429. The melting temperature with HeLa Kyoto [2] (cell cycle stage: G1/S) was found to be 47.8 °C; in the data set with HeLa Kyoto [2] (cell cycle stage: mitosis), 49.2 °C. Moreover, the “solubility change mitosis (log2)” value with HeLa Kyoto [3] came to 0.454. Besides, the thermal stability score came to 0.335 in the data set with HeLa Kyoto [4] (setting [5]) and 1.24 with HeLa Kyoto [4] (cell cycle stage: mitosis).

Values taken from the supplement of paper PMC5998384.
